B1: polypeptide consisting of the amino acid sequence represented by SEQ ID NO: 41 (peptide)
peptide: PLRLFLIIANTMAFQN
B2: polypeptide consisting of the amino acid sequence represented by SEQ ID NO: 37 (peptide)
peptide: VEYVWRNIILMSLLHLGALYGITL
B3: polypeptide consisting of the amino acid sequence represented by SEQ ID NO: 42 (peptide)
peptide: HVGWLLVRKHPAVKE
B4: polypeptide consisting of the amino acid sequence represented by SEQ ID NO: 40 (peptide)
peptide: HRSYKARLPLRLFLI
B5: polypeptide consisting of the amino acid sequence represented by SEQ ID NO: 43 (peptide)
peptide: AEKLVMFQRRYYKPGLL
B6: polypeptide consisting of the amino acid sequence represented by SEQ ID NO: 44 (peptide)
peptide: NATWLVNSAAHLFGYR
B7: polypeptide consisting of the amino acid sequence represented by SEQ ID NO: 45 (peptide)
peptide: ASEYRWHINFTT
B8: polypeptide consisting of the amino acid sequence represented by SEQ ID NO: 39 (peptide)
peptide: TAGAHRLWSHRSYKARLPLR
B9: polypeptide consisting of the amino acid sequence represented by SEQ ID NO: 38 (peptide)
peptide: WGVFYYFVSALGITAGAH

Biological target: HLA-DRB1*04 molecules (human)
Assay: cell-based or functional assay

Row | Binder | IFN-γ production (ELISA) by CD4-positive T cells against peptide-pulsed PBMCs expressing HLA-DRB1*04
1 | B1 | ≥ 1000 pg/mL
2 | B2 | ≥ 1000 pg/mL
3 | B3 | ≥ 1000 pg/mL
4 | B4 | ≥ 1000 pg/mL
5 | B5 | ≥ 1000 pg/mL
6 | B6 | ≥ 1000 pg/mL
7 | B7 | ≥ 1000 pg/mL
8 | B8 | ≥ 1000 pg/mL
9 | B9 | ≥ 1000 pg/mL

Reference: US20190076505A1 (TORAY INDUSTRIES, published 2019)
